System: peptide library, one residue held at a place counted from the S/T acceptor
Assay: relative phosphorylation of the sub-library (ratio to the mean residue at this position); higher = residue favoured
Summary of the method: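 In 384-well plates, purified recombinant kinases (human or orthologue constructs) were incubated for 90 min under kinase-specific conditions with 50 μM biotinylated degenerate peptide sub-libraries and 50 μM ATP spiked with γ-32P-ATP. Each sub-library fixed a single residue at one position around a central Ser/Thr. Relative sub-library phosphorylation, measured by phosphorimaging and densitometry of streptavidin membrane spots, is given as a ratio to the mean residue at that position.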

Chain of STK16, construct: Full length, human (O75716 whole entry, looked up): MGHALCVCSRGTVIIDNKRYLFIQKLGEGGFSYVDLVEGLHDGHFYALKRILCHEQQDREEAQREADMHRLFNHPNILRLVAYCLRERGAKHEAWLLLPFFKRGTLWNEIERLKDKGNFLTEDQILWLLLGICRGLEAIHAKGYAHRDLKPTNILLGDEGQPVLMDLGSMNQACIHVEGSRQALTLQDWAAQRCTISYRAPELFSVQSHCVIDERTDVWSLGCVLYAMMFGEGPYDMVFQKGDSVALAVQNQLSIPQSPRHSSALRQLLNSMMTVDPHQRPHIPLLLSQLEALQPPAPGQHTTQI
Chain of MAPK7, construct: aa1-405, human (Q13164 1-405, looked up): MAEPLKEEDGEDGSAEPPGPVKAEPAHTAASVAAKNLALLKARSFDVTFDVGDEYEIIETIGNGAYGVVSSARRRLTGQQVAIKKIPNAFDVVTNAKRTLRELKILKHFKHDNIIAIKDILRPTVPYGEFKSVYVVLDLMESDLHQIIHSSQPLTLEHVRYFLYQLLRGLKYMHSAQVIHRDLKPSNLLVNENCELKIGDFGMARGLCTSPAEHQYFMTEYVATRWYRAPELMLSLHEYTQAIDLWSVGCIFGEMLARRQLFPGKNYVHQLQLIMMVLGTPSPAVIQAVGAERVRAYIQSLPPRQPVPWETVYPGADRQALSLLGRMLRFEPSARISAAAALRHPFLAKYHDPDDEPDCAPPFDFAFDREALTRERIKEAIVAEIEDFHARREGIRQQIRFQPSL
Chain of STK32B, construct: Full length, human (Q9NY57 whole entry, looked up): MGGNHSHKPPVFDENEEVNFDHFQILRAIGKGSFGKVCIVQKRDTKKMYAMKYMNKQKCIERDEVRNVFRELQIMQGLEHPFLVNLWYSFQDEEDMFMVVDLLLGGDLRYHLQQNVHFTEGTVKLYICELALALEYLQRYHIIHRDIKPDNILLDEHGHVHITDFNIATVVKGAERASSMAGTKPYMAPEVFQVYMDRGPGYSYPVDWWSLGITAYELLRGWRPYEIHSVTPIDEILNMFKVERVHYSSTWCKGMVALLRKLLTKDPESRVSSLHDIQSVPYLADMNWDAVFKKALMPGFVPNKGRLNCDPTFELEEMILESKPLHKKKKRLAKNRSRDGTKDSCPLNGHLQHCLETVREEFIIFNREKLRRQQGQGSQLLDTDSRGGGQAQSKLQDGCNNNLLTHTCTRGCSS

STK16, construct: Full length, human (from UniProt O75716)
relative phosphorylation
Settings | at +1 | at +2 | at +3 | at +4 | at -1 | at -2 | at -3 | at -4 | at -5
A fixed | 0.727 | 2.01 | 1.04 | 1 | 0.863 | 1.44 | 0.99 | 1.12 | 1.1
D fixed | 0.32 | 0.668 | 0.537 | 0.519 | 0.334 | 0.409 | 0.474 | 0.885 | 0.694
E fixed | 0.182 | 0.604 | 0.496 | 0.566 | 0.273 | 0.36 | 0.491 | 0.674 | 0.581
F fixed | 0.531 | 0.95 | 0.956 | 0.888 | 0.833 | 0.758 | 0.672 | 1.12 | 0.96
G fixed | 4.33 | 1.26 | 1.66 | 1.23 | 2.16 | 0.83 | 0.808 | 1.13 | 0.953
H fixed | 0.804 | 0.887 | 0.982 | 1.07 | 2.29 | 0.75 | 0.824 | 0.94 | 1.06
I fixed | 0.534 | 0.991 | 0.898 | 0.982 | 0.526 | 1.23 | 1.98 | 0.894 | 0.914
K fixed | 1.08 | 0.844 | 1.36 | 1.16 | 1.4 | 0.569 | 0.854 | 1.06 | 0.99
L fixed | 0.461 | 0.915 | 0.81 | 0.835 | 0.656 | 1.03 | 0.894 | 0.952 | 0.868
M fixed | 0.447 | 0.822 | 0.881 | 0.875 | 0.815 | 1.04 | 0.85 | 0.961 | 0.989
N fixed | 2.13 | 0.787 | 0.897 | 0.746 | 0.737 | 0.509 | 0.701 | 0.798 | 0.875
P fixed | 0.801 | 1.03 | 1.03 | 1.1 | 1.64 | 4.27 | 2.6 | 1.43 | 1.54
Q fixed | 0.522 | 1.19 | 0.974 | 0.999 | 0.71 | 0.676 | 0.829 | 0.849 | 0.96
R fixed | 2.08 | 1.06 | 1.73 | 1.31 | 1.19 | 0.959 | 0.963 | 1.11 | 1.49
V fixed | 0.518 | 1.06 | 0.922 | 0.845 | 0.677 | 0.88 | 1.5 | 0.963 | 0.796
W fixed | 0.999 | 0.849 | 0.853 | 1.59 | 0.813 | 0.601 | 0.74 | 1.09 | 1.13
Y fixed | 0.534 | 1.08 | 0.98 | 1.29 | 1.09 | 0.695 | 0.834 | 1.02 | 1.1
pThr fixed | 0.289 | 0.402 | 0.518 | 0.44 | 0.352 | 2.01 | 0.864 | 0.838 | 0.845
pTyr fixed | 0.242 | 0.36 | 0.605 | 0.544 | 0.276 | 0.401 | 0.468 | 0.658 | 0.65

STK32B, construct: Full length, human (from UniProt Q9NY57)
relative phosphorylation
Settings | at +1 | at +2 | at +3 | at +4 | at -1 | at -2 | at -3 | at -4 | at -5
A fixed | 0.577 | 0.493 | 0.744 | 0.79 | 0.938 | 0.933 | 0.994 | 1.1 | 1.08
D fixed | 0.363 | 0.882 | 0.608 | 0.539 | 0.556 | 0.56 | 1.54 | 1.15 | 1.08
E fixed | 0.932 | 1.81 | 0.743 | 0.769 | 0.726 | 0.921 | 1.35 | 1.59 | 0.878
F fixed | 2.31 | 0.995 | 1.37 | 0.745 | 0.832 | 1.35 | 0.754 | 0.804 | 0.938
G fixed | 0.389 | 0.269 | 0.43 | 0.849 | 1.26 | 0.739 | 0.909 | 1.24 | 1.19
H fixed | 0.784 | 1.61 | 1.11 | 1.16 | 0.992 | 1.22 | 0.871 | 0.975 | 1.14
I fixed | 1.91 | 0.897 | 1.47 | 1.04 | 0.557 | 0.77 | 0.702 | 0.66 | 0.798
K fixed | 0.75 | 0.796 | 1.1 | 1.84 | 1.32 | 0.656 | 1.05 | 1.1 | 1.35
L fixed | 1.1 | 0.767 | 1.29 | 0.812 | 0.884 | 1.7 | 0.77 | 0.744 | 0.78
M fixed | 2.15 | 0.934 | 1.17 | 0.898 | 1.15 | 1.2 | 0.776 | 0.906 | 0.797
N fixed | 0.545 | 0.704 | 0.659 | 0.828 | 0.878 | 1.02 | 0.941 | 0.983 | 1.03
P fixed | 0.259 | 0.214 | 0.356 | 1.13 | 1.46 | 1.23 | 1.03 | 1.1 | 0.987
Q fixed | 1.01 | 0.86 | 0.826 | 0.864 | 1.03 | 0.88 | 0.753 | 0.88 | 0.88
R fixed | 0.939 | 1.01 | 1.05 | 1.87 | 2.02 | 1.02 | 2.17 | 1.32 | 1.39
V fixed | 1.26 | 0.765 | 1.4 | 0.742 | 0.593 | 0.797 | 0.821 | 0.764 | 0.736
W fixed | 0.713 | 1.39 | 1.41 | 1.14 | 0.634 | 0.755 | 0.65 | 0.784 | 0.844
Y fixed | 1 | 2.61 | 1.24 | 0.989 | 1.16 | 1.25 | 0.915 | 0.903 | 1.11
pThr fixed | 1.12 | 2.27 | 3.42 | 1.86 | 1.03 | 1.74 | 9.83 | 2.88 | 1.67
pTyr fixed | 2.4 | 63.9 | 6.44 | 10.7 | 1.72 | 7.31 | 2.44 | 1.38 | 1.77

MAPK7, construct: aa1-405, human (from UniProt Q13164)
relative phosphorylation
Settings | at +1 | at +2 | at +3 | at +4 | at -1 | at -2 | at -3 | at -4 | at -5
A fixed | 5.25 | 0.808 | 0.997 | 0.943 | 0.957 | 0.867 | 1.2 | 1.21 | 1.14
D fixed | 0.374 | 0.579 | 0.866 | 1.2 | 0.745 | 0.491 | 0.862 | 1.11 | 0.83
E fixed | 0.338 | 0.519 | 0.827 | 0.951 | 0.646 | 0.484 | 0.872 | 1.12 | 0.81
F fixed | 0.47 | 0.908 | 0.941 | 0.922 | 0.956 | 0.658 | 0.778 | 0.919 | 1.03
G fixed | 1.67 | 1 | 1.14 | 1.08 | 0.808 | 0.666 | 1.08 | 1.09 | 0.977
H fixed | 0.466 | 0.917 | 0.886 | 1.05 | 1.28 | 0.568 | 0.822 | 0.913 | 1.07
I fixed | 0.372 | 1.08 | 1.45 | 0.998 | 0.684 | 1.43 | 0.988 | 0.891 | 1.02
K fixed | 0.449 | 1.24 | 0.59 | 0.947 | 0.834 | 0.797 | 0.827 | 0.943 | 0.988
L fixed | 0.54 | 1.02 | 1.27 | 0.918 | 1.61 | 2.64 | 1.07 | 0.938 | 1.06
M fixed | 0.523 | 1.08 | 1.12 | 0.993 | 1.66 | 1.91 | 1.13 | 0.976 | 0.986
N fixed | 0.464 | 0.963 | 0.789 | 0.8 | 0.948 | 0.61 | 1.06 | 0.954 | 1
P fixed | 3.79 | 0.758 | 1.13 | 1.04 | 1.13 | 2.1 | 1.87 | 1.16 | 1.03
Q fixed | 0.438 | 0.927 | 0.818 | 1.07 | 1.02 | 0.928 | 0.926 | 0.941 | 0.867
R fixed | 0.471 | 2 | 0.794 | 0.939 | 0.983 | 0.695 | 1.04 | 0.894 | 1.11
V fixed | 0.426 | 1.16 | 1.08 | 0.975 | 0.69 | 0.986 | 0.96 | 0.982 | 1.01
W fixed | 0.534 | 1.1 | 1.2 | 1.21 | 0.844 | 0.631 | 0.791 | 1.03 | 0.892
Y fixed | 0.429 | 0.945 | 1.1 | 0.97 | 1.2 | 0.533 | 0.737 | 0.931 | 1.18
pThr fixed | 0.632 | 0.779 | 0.702 | 0.863 | 0.541 | 0.976 | 0.946 | 1.07 | 0.901
pTyr fixed | 0.518 | 0.587 | 0.989 | 0.835 | 0.945 | 0.815 | 1.02 | 1.11 | 1.04

CDC42BPB, construct: aa1-473, human (from UniProt Q9Y5S2)
relative phosphorylation
Settings | at +1 | at +2 | at +3 | at +4 | at -1 | at -2 | at -3 | at -4 | at -5
A fixed | 0.871 | 1.22 | 0.922 | 0.791 | 0.734 | 0.478 | 0.556 | 0.951 | 0.922
D fixed | 0.4 | 0.468 | 0.548 | 0.721 | 0.379 | 0.196 | 0.199 | 0.472 | 0.427
E fixed | 0.435 | 0.373 | 0.654 | 0.667 | 0.313 | 0.181 | 0.204 | 0.506 | 0.479
F fixed | 0.776 | 0.935 | 1.01 | 0.821 | 0.552 | 0.442 | 0.381 | 0.718 | 0.843
G fixed | 0.803 | 1.1 | 1.42 | 1.07 | 0.883 | 0.45 | 0.44 | 0.974 | 1.04
H fixed | 0.962 | 1.19 | 1.2 | 1.11 | 1.21 | 0.989 | 1.03 | 1.06 | 0.99
I fixed | 1.55 | 1.32 | 0.96 | 0.924 | 0.572 | 0.419 | 0.382 | 0.651 | 0.788
K fixed | 0.865 | 1.58 | 1.03 | 1.34 | 2.46 | 2.78 | 2.55 | 2.46 | 2.54
L fixed | 1.74 | 0.816 | 0.841 | 0.852 | 1.36 | 0.423 | 0.326 | 0.7 | 0.645
M fixed | 1.24 | 0.823 | 0.944 | 0.919 | 1.04 | 0.459 | 0.36 | 0.775 | 0.664
N fixed | 1.89 | 0.819 | 0.918 | 0.856 | 1.2 | 0.787 | 0.524 | 0.756 | 0.812
P fixed | 0.404 | 0.842 | 0.888 | 1.38 | 0.786 | 0.433 | 0.371 | 0.873 | 0.875
Q fixed | 1.08 | 0.699 | 0.829 | 1.08 | 1.09 | 0.798 | 0.648 | 0.851 | 0.786
R fixed | 1.41 | 1.65 | 1.52 | 1.52 | 2.15 | 6.46 | 7.75 | 3.03 | 2.81
V fixed | 0.983 | 1.13 | 0.936 | 0.787 | 0.667 | 0.397 | 0.335 | 0.637 | 0.768
W fixed | 0.852 | 0.934 | 1.06 | 1.23 | 0.648 | 0.718 | 0.524 | 0.849 | 0.756
Y fixed | 0.736 | 1.12 | 1.33 | 0.93 | 0.97 | 0.591 | 0.425 | 0.735 | 0.856
pThr fixed | 0.479 | 0.762 | 0.582 | 0.698 | 0.344 | 0.329 | 0.352 | 0.647 | 0.611
pTyr fixed | 0.553 | 0.745 | 0.707 | 0.685 | 0.467 | 0.319 | 0.545 | 0.558 | 0.62

Reference: the supplement of paper PMC9876800
